Here are results for three molecules from patent US20250346669A1 (DEUTSCHES KREBSFORSCHUNGSZENTRUM STIFTUNG DES FFENTLICHEN …, published 2025).

Assay [1] addresses T1, human prostate specific membrane antigen (PSMA) (human, UniProt Q04609 1-750).
T1 construct: whole, on cells; also called PMSA; FOLH1
The assay can be described thus: flow cytometry on PSMA-expressing 22RV1 cells. The protocol:
To this end, the cells were incubated with the indicated antibodies in 96 well plates for 30-45 min at 4° C. Upon incubation cells were washed and incubated with a secondary PE-goat-anti-human FC-γ specific fragment (Jackson ImmunoResearch). Cells were analyzed on a FACSCalibur (BD Biosciences).
On the technique in general: Flow cytometry measures light scatter and fluorescence of single cells or particles in a stream.

Assay [2] concerns the target T1, human prostate specific membrane …. The assay can be described thus: in vivo biodistribution of radioisotope labeled CC-1 in mice with 22Rv1 (PSMA positive) or DU145 (PSMA negative) tumors.
For assay [3] the target is unchanged. Put plainly: flow cytometry on PSMA-transfected Sp2/0 cells.
Protocol: Binding (FIG. 5A), lack of binding competition (FIG. 5B) and shift of the PSMA antigen upon antibody binding (FIG. 5C) was assessed by flow cytometry using PSMA-transfected Sp2/0 cells. To this end different α-PSMA antibodies were incubated with these cells in 96-well plates for 30-45 min at 4° C. Cells were then washed and incubated with a PE-conjugated goat-anti-mouse F(ab)₂ fragment (FIGS. 5A, 5C) (Jackson ImmunoResearch) or a PE-goat-anti-human FC-γ specific fragment (Jackson ImmunoResearch) (B). Cells were analyzed on a FACSCalibur (BD Biosciences). […] For the determination of antigen shift (FIG. 5C) PSMA expressing cells were incubated with the indicated antibodies at the beginning of the experiment and again after 24 hrs and before FACS analysis with a saturating amount (10 μg/ml) of the respective antibody. PSMA expression by untreated cells served as a reference (100% PSMA expression)

B1: PSMA (humanized h10B3) x CD3 (murine OKT3) bispecific Fabsc format antibody molecule (bispecific antibody, IgG1)
heavy: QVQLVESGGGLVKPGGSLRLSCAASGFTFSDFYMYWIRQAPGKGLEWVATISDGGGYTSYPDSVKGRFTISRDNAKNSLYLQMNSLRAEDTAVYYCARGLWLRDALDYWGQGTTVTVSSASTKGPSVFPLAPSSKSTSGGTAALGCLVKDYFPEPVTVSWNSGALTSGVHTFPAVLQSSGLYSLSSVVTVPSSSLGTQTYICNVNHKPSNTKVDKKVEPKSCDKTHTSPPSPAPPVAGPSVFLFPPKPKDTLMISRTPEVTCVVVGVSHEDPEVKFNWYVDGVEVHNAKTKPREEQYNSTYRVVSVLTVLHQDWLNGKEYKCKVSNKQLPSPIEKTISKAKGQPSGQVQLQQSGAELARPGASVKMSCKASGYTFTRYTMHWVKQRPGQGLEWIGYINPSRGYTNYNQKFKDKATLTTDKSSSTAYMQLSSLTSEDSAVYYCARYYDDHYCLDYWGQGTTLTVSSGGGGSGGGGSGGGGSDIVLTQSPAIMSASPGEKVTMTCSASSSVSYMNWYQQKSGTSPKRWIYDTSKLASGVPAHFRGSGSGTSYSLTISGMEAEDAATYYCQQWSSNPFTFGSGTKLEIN
light: EIVLTQSPATLSLSPGERATLSCSASSSISSNYLHWYQQKPGQAPRLLIYRTSNLASGIPARFSGSGSGTDYTLTISRLEPEDFAVYYCQQGSYIPFTFGQGTKLEIKRTVAAPSVFIFPPSDEQLKSGTASVVCLLNNFYPREAKVQWKVDNALQSGNSQESVTEQDSKDSTYSLSSTLTLSKADYEKHKVYACEVTHQGLSSPVTKSFNRGEC
notes: Heavy chain: h10B3 VH, IgG1 CH1, hinge, modified CH2, beginning of CH3, murine OKT3 scFv; also called h10B3xOKT3 Fabsc
For B1, in assay [1], the binding result is recorded as “binds”.

B2: PSMA (humanized h10B3) x CD3 (humanized hUCHT1) bispecific IgGsc format antibody molecule (bispecific antibody)
heavy: QVQLVESGGGLVKPGGSLRLSCAASGFTFSDFYMYWIRQAPGKGLEWVATISDGGGYTSYPDSVKGRFTISRDNAKNSLYLQMNSLRAEDTAVYYCARGLWLRDALDYWGQGTTVTVSSASTKGPSVFPLAPSSKSTSGGTAALGCLVKDYFPEPVTVSWNSGALTSGVHTFPAVLQSSGLYSLSSVVTVPSSSLGTQTYICNVNHKPSNTKVDKKVEPKSCDKTHTCPPCPAPPVAGPSVFLFPPKPKDTLMISRTPEVTCVVVGVSHEDPEVKFNWYVDGVEVHNAKTKPREEQYNSTYRVVSVLTVLHQDWLNGKEYKCKVSNKQLPSPIEKTISKAKGQPREPQVYTLPPSRDELTKNQVSLTCLVKGFYPSDIAVEWESNGQPENNYKTTPPVLDSDGSFFLYSKLTVDKSRWQQGNVFSCSVMHEALHNHYTQKSLSLSPGKSGDIQMTQSPSSLSASVGDRVTITCRASQDIRNYLNWYQQKPGKAPKLLIYYTSRLESGVPSRFSGSGSGTDYTLTISSLQPEDFATYYCQQGNTLPWTFGQGTKVEIKGGGGSGGGGSGGGGSEVQLVESGGGLVQPGGSLRLSCAASGYSFTGYTMNWVRQAPGKGLEWVALINPYKGVSTYNQKFKDRFTISVDKSKNTAYLQMNSLRAEDTAVYYCARSGYYGDSDWYFDVWGQGTLVTVSS
light: B1 light
notes: also called CC-1; PSMAxCD3 (h10B3xUCHT1)-IgGsc
Turning to B2, in assay [2], the binding result was “binds”.

B3: murine antibody 10B3 (antibody, IgG2b, V domains shown)
VH: QVQLQESGGGLVKPGGSLKLSCAASGFTFSDFYMYWVRQTPEKRLEWVATISDGGGYTSYPDSVKGRFTISRDIAKNNLYLQMNSLKSEDTAKYYCARGLWLRDALDYWGQGTSVTVSS
VL: EIVLTQSPITMAAFLGERITITCSASSSISSNYLHWYQQKPGFSPKLLIYRTSNLASGVPIRFSGSGSGTSYSLTIGTMEAEDVATYYCQQGSYIPFTFGSGTKLEIKR
notes: Mouse hybridoma antibody, isotype IgG2b/kappa; also called mu 10B3; m10B3
As for B3, the binding result in assay [3] is “binds”.
